Test results reported in the supplement of paper PMC7877785.
± gives the uncertainty stated by the source.

Assay: self-splicing fitness, log relative to wild type (ln ratio); higher = more splicing; Tetrahymena group I intron in knt gene, E. coli kanamycin selection, DiMSum; sequences stand for … in CUCUCU…GGAGGGAAAAGUUAUCAGGCAUGCACCUGGUAGCUAGUCUUUAAACCAAUAGAUUGCAUCGGUUUAAAAGGCAAGACCGUCAAAUUGCGGGAAAGGGGUCAACAGCCGUUCAGUACCAAGUCUCAGGGGAAACUUUGAGAUGGCCUUGCAAAGGGUAUGGUAAUAAGCUGACGGACAUGGUCCUAACCACGCAGCCAAGUCCUAAGUCAACAGAUCUUCUGUUGAUAUGGAUGCAGUUCACAGACUAAAUGUCGGUCGGGGAAGAUGUAUUCUUCUCAUAAGAUAUAGUCGGACCUCUCCUUAAUGGGAGCUAGCGGAUGAAGUGAUGCAACACUGGAGCCGCUGGGAACUAAUUUGUAUGCGAAAGUAUAUUGAUUAGUUUUGGAGUACUCGUGGUCG
Method in brief: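 Library with all eight P1ex-region intron nucleotides randomised, intron inside the knt kanamycin-resistance gene on pET-22b(+), in E. coli BL21(DE3). Cells grew overnight at 37°C or 30°C on LB agar with or without 25 μg/mL kanamycin (plus 100 μg/mL carbenicillin, 50 μM IPTG, 0.2% rhamnose), in six replicate transformations. Pooled colonies were amplicon-sequenced on Illumina HiSeq 2500. DiMSum fitness is the error-weighted combination of wild-type-normalised replicate fold changes, kanamycin versus none.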

Sequence	self-splicing fitness (ln) (30 °C)	self-splicing fitness (ln) (37 °C)
GACAAGCAAUAUUACGGUCC	-3.13 ± 0.2	-1.83 ± 0.29
GACAAGCAAUAUUACGUAAC	-1.64 ± 0.077	-1.22 ± 0.11
GACAAGCAAUAUUACGUACA	-0.573 ± 0.055	-0.314 ± 0.079
GACAAGCAAUAUUACGUCGA	-2.53 ± 0.09	-1.24 ± 0.078
GACAAGCAAUAUUACGUCGG	-2.91 ± 0.14	-2.43 ± 0.18
GACAAGCAAUAUUACGUGAG	-2.28 ± 0.058	-1.43 ± 0.06
GACAAGCAAUAUUACGUGCG	-1.16 ± 0.068	-0.532 ± 0.081
GACAAGCAAUAUUACGUGUG	-2.78 ± 0.078	-1.56 ± 0.083
GACCAGCAAUAUUACGACCA	-0.124 ± 0.17	-0.054 ± 0.15
GACCAGCAAUAUUACGACCG	-0.572 ± 0.11	-0.318 ± 0.17
GACCAGCAAUAUUACGAGGC	-3.02 ± 0.13	-0.778 ± 0.091
GACCAGCAAUAUUACGAUCC	-1.93 ± 0.14	-1.27 ± 0.17
GACCAGCAAUAUUACGCAAA	-1.75 ± 0.11	-0.859 ± 0.1
GACCAGCAAUAUUACGCAAG	-1.81 ± 0.089	-1.15 ± 0.11
GACCAGCAAUAUUACGCACC	-0.0772 ± 0.089	-1.06 ± 0.11
GACCAGCAAUAUUACGCAUA	-0.474 ± 0.058	-0.452 ± 0.074
GACCAGCAAUAUUACGCCGA	-0.69 ± 0.14	-0.272 ± 0.15
GACCAGCAAUAUUACGCGUA	-0.76 ± 0.059	-0.392 ± 0.068
GACCAGCAAUAUUACGCUCC	-2.32 ± 0.22	-1.83 ± 0.21
GACCAGCAAUAUUACGGAGG	-2.04 ± 0.068	-0.681 ± 0.07
GACCAGCAAUAUUACGGCAU	0.00655 ± 0.046	0.553 ± 0.068
GACCAGCAAUAUUACGGGAU	-1.71 ± 0.084	-0.575 ± 0.099
GACCAGCAAUAUUACGGGCC	-3.69 ± 0.15	-2.26 ± 0.21
GACCAGCAAUAUUACGGGCU	-2.93 ± 0.14	-1.96 ± 0.14
GACCAGCAAUAUUACGGUCC	-2.95 ± 0.17	

Sequence	self-splicing fitness (ln) (30 °C)	self-splicing fitness (ln) (37 °C)
GACCAGCAAUAUUACGGUUG	-0.661 ± 0.053	-0.341 ± 0.062
GACCAGCAAUAUUACGUAGC	-0.693 ± 0.069	-0.496 ± 0.082
GACCAGCAAUAUUACGUGGA	-1.67 ± 0.078	-0.914 ± 0.081
GACCAGCAAUAUUACGUUCG	-2.05 ± 0.073	-0.063 ± 0.074
GACCAGCAAUAUUACGUUGA	-0.701 ± 0.053	-0.203 ± 0.066
GACCAGCAAUAUUACGUUGG	-3.95 ± 0.13	-2.53 ± 0.12
GACGAGCAAUAUUACGAAAC	-4.29 ± 0.3	-3.14 ± 0.28
GACGAGCAAUAUUACGAAGA	-3.31 ± 0.27	
GACGAGCAAUAUUACGACCU	-2.01 ± 0.15	0.0378 ± 0.16
GACGAGCAAUAUUACGACGU	-2.31 ± 0.23	-1.13 ± 0.25
GACGAGCAAUAUUACGAUGC	-3.82 ± 0.44	-0.275 ± 0.21
GACGAGCAAUAUUACGCACC	-3.06 ± 0.15	-0.796 ± 0.12
GACGAGCAAUAUUACGCCGU	-2.58 ± 0.45	
GACGAGCAAUAUUACGCGGA	-2.74 ± 0.23	-2.87 ± 0.36
GACGAGCAAUAUUACGCGGC	-3.25 ± 0.29	
GACGAGCAAUAUUACGCUAU	-3.39 ± 0.2	-2.42 ± 0.25
GACGAGCAAUAUUACGCUGG		-2.79 ± 0.43
GACGAGCAAUAUUACGGACU	-0.448 ± 0.15	-0.75 ± 0.18
GACGAGCAAUAUUACGGAGC	-4.4 ± 0.39	-2.27 ± 0.22
GACGAGCAAUAUUACGGAUA	-2.52 ± 0.24	-2.55 ± 0.44
GACGAGCAAUAUUACGGCCA		0.241 ± 0.29
GACGAGCAAUAUUACGGCCU	-1.85 ± 0.096	-1.12 ± 0.14
GACGAGCAAUAUUACGGCUC	-2.6 ± 0.12	-1.41 ± 0.15
GACGAGCAAUAUUACGGCUG	-1.82 ± 0.13	-1.13 ± 0.13
GACGAGCAAUAUUACGGGGA	-3.12 ± 0.22	-2.37 ± 0.29
